# Measured values taken from patent publication US20240270846A1 (published 2024).
# Biological target: T1, CD3 epsilon homodimer protein (UniProt P07766 23-126)
# T1 construct: also called CD3 (CD3 epsilon)
# Test: SPR (Biacore T200), CD3e homodimer on CM4 chip, antibody as analyte; KD ratio vs unaltered GLS3000;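 also: CD3 epsilon homodimer amine-coupled to the sensor surface, antibodies injected as analyte at 25 °C with HBS-EP+ running buffer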
# T1 sequence (P07766 23-126): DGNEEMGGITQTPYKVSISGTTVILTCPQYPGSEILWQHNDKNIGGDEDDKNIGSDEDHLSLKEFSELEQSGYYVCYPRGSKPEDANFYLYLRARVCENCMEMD
row,Binder,KD ratio to GLS3000 [ratio]
1,"CE115HA000/GLS3000 G91E one-arm antibody (antibody, human IgG1, kappa, L234A L235A, N297A, name in Kabat numbering, one-arm IgG1) heavy: QVQLVESGGGVVQPGRSLRLSCAASGFTFSNAWMHWVRQAPGKGLEWVAQIKAKSNNYATYYAESVKGRFTISRDDSKNSLYLQMNSLKTEDTAVYYCRYVHYGAYYGVDAWGQGTTVTVSSASTKGPSVFPLAPSSKSTSGGTAALGCLVKDYFPEPVTVSWNSGALTSGVHTFPAVLQSSGLYSLSSVVTVPSSSLGTQTYICNVNHKPSNTKVDKKVEPKSCDKTHTCPPCPAPEAAGGPSVFLFPPKPKDTLMISRTPEVTCVVVDVSHEDPEVKFNWYVDGVEVHNAKTKPREEQYASTYRVVSVLTVLHQDWLNGKEYKCKVSNKALPAPIEKTISKAKGQPREPQVYTLPPSRCELTKNQVSLSCAVKGFYPSDIAVEWESNGQPENNYKTTPPVLDSDGSFFLVSKLTVDKSRWQQGNVFSCSVMHEALHNHYTQKSLSLSPDYKDDDDK EPKSSDKTHTCPPCPAPELLGGPSVFLFPPKPKDTLMISRTPEVTCVVVDVSHEDPEVKFNWYVDGVEVHNAKTKPREEQYNSTYRVVSVLTVLHQDWLNGKEYKCKVSNKALPAPIEKTISKAKGQPREPQVCTLPPSRDELTKNQVSLWCLVKGFYPSDIAVEWESNGQPENNYKTTPPVLDSDGSFFLYSKLTVDKSRWQQGNVFSCSVMHEALHNRYTQKSLSLSP light: DIVMTQSPLSLPVTPGEPASISCRSSQSLVHSNRNTYLHWYQQKPGQAPRLLIYKVSNRFSGVPDRFSGSGSGTDFTLKISRVEAEDVGVYYCGQETQVPYTFGQGTKLEIKRTVAAPSVFIFPPSDEQLKSGTASVVCLLNNFYPREAKVQWKVDNALQSGNSQESVTEQDSKDSTYSLSSTLTLSKADYEKHKVYACEVTHQGLSSPVTKSFNRGEC",48.5
2,"CE115HA000/GLS3000 H34D one-arm antibody (antibody, human IgG1, kappa, L234A L235A, N297A, name in Kabat numbering, one-arm IgG1) heavy: QVQLVESGGGVVQPGRSLRLSCAASGFTFSNAWMHWVRQAPGKGLEWVAQIKAKSNNYATYYAESVKGRFTISRDDSKNSLYLQMNSLKTEDTAVYYCRYVHYGAYYGVDAWGQGTTVTVSSASTKGPSVFPLAPSSKSTSGGTAALGCLVKDYFPEPVTVSWNSGALTSGVHTFPAVLQSSGLYSLSSVVTVPSSSLGTQTYICNVNHKPSNTKVDKKVEPKSCDKTHTCPPCPAPEAAGGPSVFLFPPKPKDTLMISRTPEVTCVVVDVSHEDPEVKFNWYVDGVEVHNAKTKPREEQYASTYRVVSVLTVLHQDWLNGKEYKCKVSNKALPAPIEKTISKAKGQPREPQVYTLPPSRCELTKNQVSLSCAVKGFYPSDIAVEWESNGQPENNYKTTPPVLDSDGSFFLVSKLTVDKSRWQQGNVFSCSVMHEALHNHYTQKSLSLSPDYKDDDDK EPKSSDKTHTCPPCPAPELLGGPSVFLFPPKPKDTLMISRTPEVTCVVVDVSHEDPEVKFNWYVDGVEVHNAKTKPREEQYNSTYRVVSVLTVLHQDWLNGKEYKCKVSNKALPAPIEKTISKAKGQPREPQVCTLPPSRDELTKNQVSLWCLVKGFYPSDIAVEWESNGQPENNYKTTPPVLDSDGSFFLYSKLTVDKSRWQQGNVFSCSVMHEALHNRYTQKSLSLSP light: DIVMTQSPLSLPVTPGEPASISCRSSQSLVHSNRNTYLDWYQQKPGQAPRLLIYKVSNRFSGVPDRFSGSGSGTDFTLKISRVEAEDVGVYYCGQGTQVPYTFGQGTKLEIKRTVAAPSVFIFPPSDEQLKSGTASVVCLLNNFYPREAKVQWKVDNALQSGNSQESVTEQDSKDSTYSLSSTLTLSKADYEKHKVYACEVTHQGLSSPVTKSFNRGEC",2100
3,"CE115HA000/GLS3000 H34F one-arm antibody (antibody, human IgG1, kappa, L234A L235A, N297A, name in Kabat numbering, one-arm IgG1) heavy: QVQLVESGGGVVQPGRSLRLSCAASGFTFSNAWMHWVRQAPGKGLEWVAQIKAKSNNYATYYAESVKGRFTISRDDSKNSLYLQMNSLKTEDTAVYYCRYVHYGAYYGVDAWGQGTTVTVSSASTKGPSVFPLAPSSKSTSGGTAALGCLVKDYFPEPVTVSWNSGALTSGVHTFPAVLQSSGLYSLSSVVTVPSSSLGTQTYICNVNHKPSNTKVDKKVEPKSCDKTHTCPPCPAPEAAGGPSVFLFPPKPKDTLMISRTPEVTCVVVDVSHEDPEVKFNWYVDGVEVHNAKTKPREEQYASTYRVVSVLTVLHQDWLNGKEYKCKVSNKALPAPIEKTISKAKGQPREPQVYTLPPSRCELTKNQVSLSCAVKGFYPSDIAVEWESNGQPENNYKTTPPVLDSDGSFFLVSKLTVDKSRWQQGNVFSCSVMHEALHNHYTQKSLSLSPDYKDDDDK EPKSSDKTHTCPPCPAPELLGGPSVFLFPPKPKDTLMISRTPEVTCVVVDVSHEDPEVKFNWYVDGVEVHNAKTKPREEQYNSTYRVVSVLTVLHQDWLNGKEYKCKVSNKALPAPIEKTISKAKGQPREPQVCTLPPSRDELTKNQVSLWCLVKGFYPSDIAVEWESNGQPENNYKTTPPVLDSDGSFFLYSKLTVDKSRWQQGNVFSCSVMHEALHNRYTQKSLSLSP light: DIVMTQSPLSLPVTPGEPASISCRSSQSLVHSNRNTYLFWYQQKPGQAPRLLIYKVSNRFSGVPDRFSGSGSGTDFTLKISRVEAEDVGVYYCGQGTQVPYTFGQGTKLEIKRTVAAPSVFIFPPSDEQLKSGTASVVCLLNNFYPREAKVQWKVDNALQSGNSQESVTEQDSKDSTYSLSSTLTLSKADYEKHKVYACEVTHQGLSSPVTKSFNRGEC",3.5
4,"CE115HA000/GLS3000 H34E one-arm antibody (antibody, human IgG1, kappa, L234A L235A, N297A, name in Kabat numbering, one-arm IgG1) heavy: QVQLVESGGGVVQPGRSLRLSCAASGFTFSNAWMHWVRQAPGKGLEWVAQIKAKSNNYATYYAESVKGRFTISRDDSKNSLYLQMNSLKTEDTAVYYCRYVHYGAYYGVDAWGQGTTVTVSSASTKGPSVFPLAPSSKSTSGGTAALGCLVKDYFPEPVTVSWNSGALTSGVHTFPAVLQSSGLYSLSSVVTVPSSSLGTQTYICNVNHKPSNTKVDKKVEPKSCDKTHTCPPCPAPEAAGGPSVFLFPPKPKDTLMISRTPEVTCVVVDVSHEDPEVKFNWYVDGVEVHNAKTKPREEQYASTYRVVSVLTVLHQDWLNGKEYKCKVSNKALPAPIEKTISKAKGQPREPQVYTLPPSRCELTKNQVSLSCAVKGFYPSDIAVEWESNGQPENNYKTTPPVLDSDGSFFLVSKLTVDKSRWQQGNVFSCSVMHEALHNHYTQKSLSLSPDYKDDDDK EPKSSDKTHTCPPCPAPELLGGPSVFLFPPKPKDTLMISRTPEVTCVVVDVSHEDPEVKFNWYVDGVEVHNAKTKPREEQYNSTYRVVSVLTVLHQDWLNGKEYKCKVSNKALPAPIEKTISKAKGQPREPQVCTLPPSRDELTKNQVSLWCLVKGFYPSDIAVEWESNGQPENNYKTTPPVLDSDGSFFLYSKLTVDKSRWQQGNVFSCSVMHEALHNRYTQKSLSLSP light: DIVMTQSPLSLPVTPGEPASISCRSSQSLVHSNRNTYLEWYQQKPGQAPRLLIYKVSNRFSGVPDRFSGSGSGTDFTLKISRVEAEDVGVYYCGQGTQVPYTFGQGTKLEIKRTVAAPSVFIFPPSDEQLKSGTASVVCLLNNFYPREAKVQWKVDNALQSGNSQESVTEQDSKDSTYSLSSTLTLSKADYEKHKVYACEVTHQGLSSPVTKSFNRGEC",8.03

# Now from value to binder:
row,KD ratio to GLS3000 [ratio],Binder
1,0.89,"CE115HA000/GLS3000 H34I one-arm antibody (antibody, human IgG1, kappa, L234A L235A, N297A, name in Kabat numbering, one-arm IgG1) heavy: QVQLVESGGGVVQPGRSLRLSCAASGFTFSNAWMHWVRQAPGKGLEWVAQIKAKSNNYATYYAESVKGRFTISRDDSKNSLYLQMNSLKTEDTAVYYCRYVHYGAYYGVDAWGQGTTVTVSSASTKGPSVFPLAPSSKSTSGGTAALGCLVKDYFPEPVTVSWNSGALTSGVHTFPAVLQSSGLYSLSSVVTVPSSSLGTQTYICNVNHKPSNTKVDKKVEPKSCDKTHTCPPCPAPEAAGGPSVFLFPPKPKDTLMISRTPEVTCVVVDVSHEDPEVKFNWYVDGVEVHNAKTKPREEQYASTYRVVSVLTVLHQDWLNGKEYKCKVSNKALPAPIEKTISKAKGQPREPQVYTLPPSRCELTKNQVSLSCAVKGFYPSDIAVEWESNGQPENNYKTTPPVLDSDGSFFLVSKLTVDKSRWQQGNVFSCSVMHEALHNHYTQKSLSLSPDYKDDDDK EPKSSDKTHTCPPCPAPELLGGPSVFLFPPKPKDTLMISRTPEVTCVVVDVSHEDPEVKFNWYVDGVEVHNAKTKPREEQYNSTYRVVSVLTVLHQDWLNGKEYKCKVSNKALPAPIEKTISKAKGQPREPQVCTLPPSRDELTKNQVSLWCLVKGFYPSDIAVEWESNGQPENNYKTTPPVLDSDGSFFLYSKLTVDKSRWQQGNVFSCSVMHEALHNRYTQKSLSLSP light: DIVMTQSPLSLPVTPGEPASISCRSSQSLVHSNRNTYLIWYQQKPGQAPRLLIYKVSNRFSGVPDRFSGSGSGTDFTLKISRVEAEDVGVYYCGQGTQVPYTFGQGTKLEIKRTVAAPSVFIFPPSDEQLKSGTASVVCLLNNFYPREAKVQWKVDNALQSGNSQESVTEQDSKDSTYSLSSTLTLSKADYEKHKVYACEVTHQGLSSPVTKSFNRGEC"
2,1.08,"CE115HA000/GLS3000 H34G one-arm antibody (antibody, human IgG1, kappa, L234A L235A, N297A, name in Kabat numbering, one-arm IgG1) heavy: QVQLVESGGGVVQPGRSLRLSCAASGFTFSNAWMHWVRQAPGKGLEWVAQIKAKSNNYATYYAESVKGRFTISRDDSKNSLYLQMNSLKTEDTAVYYCRYVHYGAYYGVDAWGQGTTVTVSSASTKGPSVFPLAPSSKSTSGGTAALGCLVKDYFPEPVTVSWNSGALTSGVHTFPAVLQSSGLYSLSSVVTVPSSSLGTQTYICNVNHKPSNTKVDKKVEPKSCDKTHTCPPCPAPEAAGGPSVFLFPPKPKDTLMISRTPEVTCVVVDVSHEDPEVKFNWYVDGVEVHNAKTKPREEQYASTYRVVSVLTVLHQDWLNGKEYKCKVSNKALPAPIEKTISKAKGQPREPQVYTLPPSRCELTKNQVSLSCAVKGFYPSDIAVEWESNGQPENNYKTTPPVLDSDGSFFLVSKLTVDKSRWQQGNVFSCSVMHEALHNHYTQKSLSLSPDYKDDDDK EPKSSDKTHTCPPCPAPELLGGPSVFLFPPKPKDTLMISRTPEVTCVVVDVSHEDPEVKFNWYVDGVEVHNAKTKPREEQYNSTYRVVSVLTVLHQDWLNGKEYKCKVSNKALPAPIEKTISKAKGQPREPQVCTLPPSRDELTKNQVSLWCLVKGFYPSDIAVEWESNGQPENNYKTTPPVLDSDGSFFLYSKLTVDKSRWQQGNVFSCSVMHEALHNRYTQKSLSLSP light: DIVMTQSPLSLPVTPGEPASISCRSSQSLVHSNRNTYLGWYQQKPGQAPRLLIYKVSNRFSGVPDRFSGSGSGTDFTLKISRVEAEDVGVYYCGQGTQVPYTFGQGTKLEIKRTVAAPSVFIFPPSDEQLKSGTASVVCLLNNFYPREAKVQWKVDNALQSGNSQESVTEQDSKDSTYSLSSTLTLSKADYEKHKVYACEVTHQGLSSPVTKSFNRGEC"
